Results on three molecules are retold here after US20240181006A1, “POLYPEPTIDES BINDING ADAMTS5, MMP13 AND AGGRECAN” (Merck Patent GmbH, priority 2017, published 2024).

Assay [1] addresses T1, human MMP1 (Homo sapiens, UniProt P03956).
T1 sequence (P03956 100-469): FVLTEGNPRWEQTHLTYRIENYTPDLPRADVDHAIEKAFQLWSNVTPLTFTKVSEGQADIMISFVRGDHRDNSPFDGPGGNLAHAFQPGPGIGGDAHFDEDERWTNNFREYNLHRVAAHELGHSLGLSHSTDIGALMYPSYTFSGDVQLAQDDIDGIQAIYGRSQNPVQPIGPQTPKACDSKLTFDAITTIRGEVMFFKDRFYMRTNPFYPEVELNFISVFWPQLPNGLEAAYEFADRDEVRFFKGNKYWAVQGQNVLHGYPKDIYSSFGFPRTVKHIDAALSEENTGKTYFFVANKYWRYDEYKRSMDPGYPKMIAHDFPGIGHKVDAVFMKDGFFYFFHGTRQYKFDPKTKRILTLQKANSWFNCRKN
Put plainly: human MMP1 fluorogenic peptide assay (selectivity of 62C02). In kind it is biochemical. The conditions noted are these: data not shown. The protocol:
(§1) In brief, the setup of human, cynomolgus, rat, dog and bovine MMP13 fluorogenic peptide assays, as well as human MMP1 and MMP14 fluorogenic peptide assays is as follows. Activated MMP was incubated with fluorogenic peptide substrate Mca-PLGL-Dpa-AR-NH2 (R&D Systems #ES001) and a ⅕ dilution of periplasmic extract or a dilution series of purified Nanobody/positive control (total volume=20 μl in assay buffer 50 mM Tris pH 7.5, 100 mM NaCl, 10 mM CaCl2), 0.01% Tween20), for 2 h at 37° C. The linear increase of fluorescence (v0-between 15 and 45 min incubation) was used as a measure for the enzymatic activity and % inhibition was calculated with the formula 100-100 (v0 in the presence of test Nanobody/v0 in the presence of negative control Nanobody (Cablys)).
(§2) In order to determine the selectivity of ISVD 62C02 for MMP13, fluorogenic peptide assays for MMP1 and MMPP14 were used. MMP1 and MMP14 are two closely related MMP family members. TIMP-2 was used as positive control in these assays. A similar set up as described in Example 1.1 was used.

For assay [2], the target named is T2, human MMP14 (Homo sapiens, UniProt P50281). Put plainly: human MMP14 fluorogenic peptide assay (selectivity of 62C02). Type of assay: biochemical. The settings on record: data not shown. The protocol: as §1, §2
Another assay relates to Cy G1-IGD-G2. The assay is described as follows: periplasmic extract ELISA, cynomolgus Aggrecan G1-IGD-G2. Type of assay: binding. From the text:
(§3) After the primary screening, initial assessment of binding via ELISA, determination of off-rate and species cross-reactivity, ISVD 114F08 was subjected to further characterization.
For orientation: An ELISA detects its analyte on a solid surface through an enzyme-linked reagent.

The test system of the next assay is Rat G1-IGD-G2. The assay is described as follows: periplasmic extract ELISA, rat Aggrecan G1-IGD-G2. In kind it is binding.
Rat G1-IGD-G2, sequence (P07897 20-684 limits assumed): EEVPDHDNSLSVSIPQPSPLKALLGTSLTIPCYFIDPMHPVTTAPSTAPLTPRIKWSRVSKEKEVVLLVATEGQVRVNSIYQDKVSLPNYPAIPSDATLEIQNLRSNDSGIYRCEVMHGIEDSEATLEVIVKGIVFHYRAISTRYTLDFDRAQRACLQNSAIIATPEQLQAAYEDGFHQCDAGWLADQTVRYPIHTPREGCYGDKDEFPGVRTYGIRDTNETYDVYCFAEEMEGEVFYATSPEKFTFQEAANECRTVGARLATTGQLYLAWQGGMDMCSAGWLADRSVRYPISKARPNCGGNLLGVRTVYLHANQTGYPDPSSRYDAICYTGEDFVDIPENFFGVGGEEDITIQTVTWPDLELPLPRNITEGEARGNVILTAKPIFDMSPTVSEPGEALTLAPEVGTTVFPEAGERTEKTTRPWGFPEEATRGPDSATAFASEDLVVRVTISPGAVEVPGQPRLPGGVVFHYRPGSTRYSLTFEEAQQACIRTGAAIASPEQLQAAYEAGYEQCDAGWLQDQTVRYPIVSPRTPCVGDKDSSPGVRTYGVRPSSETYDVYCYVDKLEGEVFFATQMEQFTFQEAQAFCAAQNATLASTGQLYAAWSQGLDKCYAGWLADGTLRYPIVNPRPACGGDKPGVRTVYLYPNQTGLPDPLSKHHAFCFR
Text: as §3

The target in the next assay is T3, Dog G1-IGD-G2 (Canis lupus familiaris, UniProt Q28343).
T3 construct: Dog G1-IGD-G2
T3 sequence (Q28343 20-693): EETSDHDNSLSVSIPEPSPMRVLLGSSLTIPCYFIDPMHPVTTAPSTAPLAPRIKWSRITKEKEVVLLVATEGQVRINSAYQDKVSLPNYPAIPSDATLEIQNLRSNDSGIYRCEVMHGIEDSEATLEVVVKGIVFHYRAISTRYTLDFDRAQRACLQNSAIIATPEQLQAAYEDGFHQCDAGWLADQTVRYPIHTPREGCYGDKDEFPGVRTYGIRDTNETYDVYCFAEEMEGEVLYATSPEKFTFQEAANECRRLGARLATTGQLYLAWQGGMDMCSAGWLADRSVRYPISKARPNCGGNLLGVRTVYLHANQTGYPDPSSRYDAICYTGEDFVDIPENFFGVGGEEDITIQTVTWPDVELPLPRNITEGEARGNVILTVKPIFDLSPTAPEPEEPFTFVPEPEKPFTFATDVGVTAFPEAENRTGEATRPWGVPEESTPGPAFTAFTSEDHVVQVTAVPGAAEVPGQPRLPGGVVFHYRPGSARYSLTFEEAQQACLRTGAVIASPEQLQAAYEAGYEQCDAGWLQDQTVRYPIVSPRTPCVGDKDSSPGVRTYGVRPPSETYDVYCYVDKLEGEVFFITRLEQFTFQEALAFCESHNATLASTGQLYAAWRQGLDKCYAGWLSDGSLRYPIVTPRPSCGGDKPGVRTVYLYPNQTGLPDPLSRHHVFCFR
The assay is described as follows: periplasmic extract ELISA, dog Aggrecan G1-IGD-G2. Type of assay: binding.
Text: as §3

The target in the next assay is T4, Hu G1-IGD-G2 (Homo sapiens, UniProt P16112).
T4 construct: Hu G1-IGD-G2
T4 sequence (P16112 20-676 limits assumed): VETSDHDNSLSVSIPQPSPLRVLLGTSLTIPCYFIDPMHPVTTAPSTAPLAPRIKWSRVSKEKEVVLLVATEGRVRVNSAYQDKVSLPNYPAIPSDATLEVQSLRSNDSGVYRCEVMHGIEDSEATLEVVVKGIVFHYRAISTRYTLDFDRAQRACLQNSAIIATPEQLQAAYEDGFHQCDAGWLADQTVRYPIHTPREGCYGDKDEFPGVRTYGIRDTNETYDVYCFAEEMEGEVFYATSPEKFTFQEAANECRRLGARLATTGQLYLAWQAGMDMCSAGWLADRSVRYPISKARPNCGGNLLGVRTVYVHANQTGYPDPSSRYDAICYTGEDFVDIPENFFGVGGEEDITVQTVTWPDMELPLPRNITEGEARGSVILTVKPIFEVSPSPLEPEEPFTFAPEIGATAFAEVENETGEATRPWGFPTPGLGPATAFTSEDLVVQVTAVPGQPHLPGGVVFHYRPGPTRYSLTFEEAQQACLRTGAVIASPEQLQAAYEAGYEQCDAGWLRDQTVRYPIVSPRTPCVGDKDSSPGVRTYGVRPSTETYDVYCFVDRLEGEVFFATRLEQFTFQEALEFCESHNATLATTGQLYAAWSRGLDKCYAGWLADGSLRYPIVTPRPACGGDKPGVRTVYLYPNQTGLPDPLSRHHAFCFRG
Put plainly: periplasmic extract ELISA, human Aggrecan G1-IGD-G2. Type of assay: binding.
Text: as §3

The target of the next assay is T5, Bov G1-IGD-G2 (Bos taurus, UniProt P13608).
T5 construct: the recombinant G1-IGD-G2 region from human, cynomolgus, rat, dog and bovine Aggrecan
T5 sequence (P13608 20-685 limits assumed): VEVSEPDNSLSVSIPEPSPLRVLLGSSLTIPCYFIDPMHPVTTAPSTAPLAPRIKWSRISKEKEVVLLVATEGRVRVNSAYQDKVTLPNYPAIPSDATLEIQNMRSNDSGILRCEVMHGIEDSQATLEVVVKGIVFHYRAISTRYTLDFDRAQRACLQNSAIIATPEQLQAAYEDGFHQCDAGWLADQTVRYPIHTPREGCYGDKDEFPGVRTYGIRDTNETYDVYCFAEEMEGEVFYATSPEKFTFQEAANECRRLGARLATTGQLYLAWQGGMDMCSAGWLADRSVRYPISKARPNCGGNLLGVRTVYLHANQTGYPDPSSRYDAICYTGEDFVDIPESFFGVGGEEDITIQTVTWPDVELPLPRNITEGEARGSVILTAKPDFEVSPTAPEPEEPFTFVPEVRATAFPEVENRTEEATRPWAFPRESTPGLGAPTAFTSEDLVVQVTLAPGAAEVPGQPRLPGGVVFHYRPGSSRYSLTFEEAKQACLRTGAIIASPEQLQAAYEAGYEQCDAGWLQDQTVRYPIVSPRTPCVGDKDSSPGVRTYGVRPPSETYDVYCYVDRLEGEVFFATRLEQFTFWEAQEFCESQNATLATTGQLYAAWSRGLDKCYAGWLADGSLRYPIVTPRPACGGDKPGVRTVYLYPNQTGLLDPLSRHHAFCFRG
Put plainly: periplasmic extract ELISA, bovine Aggrecan G1-IGD-G2. In kind it is binding.
Text: as §3

Assay [3] concerns the target T2, human MMP14. Put plainly: FRET-based human MMP14 assay (selectivity of 02F03). In kind it is biochemical. The conditions noted are these: data not shown. How it is done:
(§4) To confirm the selectivity of ISVD 02F03 for ADAMTS5, inhibition of the enzymatic activity of MMP1, MMP14 and ADAMTS4 was evaluated via FRET-based assays and a human ADAMTS4 AlphaLISA, with the respective enzymes.
(§5) Activated human MMP1 or MMP14 was incubated for 30 minutes at room temperature with 10 μl of dilution series of ISVD 02F03. After incubation, 20 μl of respectively 5 μM or 2.5 μM fluorogenic peptide substrate (Mca-PLGL-Dpa-AR-NH2 Fluorogenic MMP Substrate (R&D Systems cat #ES001)) was added. The ability of ISVD 02F03 to prevent MMP1- and MMP14-mediated cleavage was monitored every minute for 2 hours at 37° C. on a Tecan Infinite M1000 plate reader.

Assay [4] has as its target T1, human MMP1. Put plainly: FRET-based human MMP1 assay (selectivity of 02F03). In kind it is biochemical. The settings on record: data not shown. The protocol: as §4, §5

B1: ISVD 62C02: MMP13 specific immunoglobulin single variable domain (protein)
VHH: EVQLVESGGGVVQPGGSLRLSCAASGFAFSAAYMSWVRQAPGKGLEWVSSISDDGSKTYYADSVKGRFTISRDNSKNTVYLQMNSLRPEDTALYYCNTGYGATTTRPGRYWGQGTLVTVSS
modifications: Description of Artificial Sequence: Synthetic anti-MMP13 immunoglobulin single variable domain (ISVD)
Regarding B1, the MMP1 inhibition entry in the assay with human MMP1 [1] is listed as “no MMP1 or MMP14 inhibition”. Also, the MMP14 inhibition result with human MMP14 [2] is “no MMP1 or MMP14 inhibition”.

B2: ISVD 114F08: Aggrecan-specific immunoglobulin single variable domain (CAP), binds G1 domain (protein)
VHH: EVQLVESGGGVVQPGGSLRLSCAASGSTFIINVVRWYRRAPGKQRELVATISSGGNANYVDSVRGRFTISRDNSKNTVYLQMNSLRPEDTALYYCNVPTTHYGGVYYGPYWGQGTLVTVSS
modifications: Description of Artificial Sequence: Synthetic anti-Aggrecan immunoglobulin single variable domain (ISVD)
Consider B2, for which, in the assay with Cy G1-IGD-G2, the “Periplasmic extract ELISA OD 450 nm, Cy G1-IGD-G2” value stood at 2.32. Moreover, in the assay on Rat G1-IGD-G2, the “Periplasmic extract ELISA OD 450 nm, Rat G1-IGD-G2” value worked out at 2.05. In the assay with Dog G1-IGD-G2, the “Periplasmic extract ELISA OD 450 nm, Dog G1-IGD-G2” value worked out at 1.90. In addition, the “Periplasmic extract ELISA OD 450 nm, Hu G1-IGD-G2” value with Hu G1-IGD-G2 came out at 2.38. The “Periplasmic extract ELISA OD 450 nm, Bov G1-IGD-G2” value in the assay with Bov G1-IGD-G2 stood at 1.18.

B3: TIMP3: natural inhibitor of MMP1 and MMP14 (protein)
chain: CTCSPSHPQDAFCNSDIVIRAKVVGKKLVKEGPFGTLVYTIKQMKMYRGFTKMPHVQYIHTEASESLCGLKLEVNKYQYLLTGRVYDGKMYTGLCNFVERWDQLTLSQRKGLNYRYHLGCNCKIKSCYYLPCFVTSKNECLWTDMLSNFGYPGYQSKHYACIRQKGGYCSWYRGWAPPDKSIINATDP
Regarding B3, in the assay with human MMP14 [3], the “inhibition of MMP14 activity” value is listed as “inhibited”. For the same molecule, in the assay with human MMP1 [4], the “inhibition of MMP1 activity” value is reported as “inhibited”.
